{
  "source": "paper PMC12148588",
  "about": "(eBioMedicine, 2025)",
  "binders": {"B1": {"name": "MB043_CL39 (antibody, V domains shown)", "VH": "EVQLVETGGGLIHPGGSLRLSCAASEFIVSYNYMSWVRQAPGKGLEWVSVIYSGGSTFYADAVKGRFTISRDSSKNTLDLLMNSLRVEDTAVYYCARVLPSNTDYFDYWGQGILVTVSS", "VL": "QSVLTQPPSVSGATGQRVTISCTGSNSNIGAGSDVHWYQQLPGAAPKLLIYVNNNRPSGVPDRFSGSKSGTSASLAITGLQAEDEADYYCQSYDSSLSGYVFGTGTKVTVL"}},
  "target": "T1, SARS-CoV-2 RBD of the Wuhan strain (Acro Biosystems SPD-C82E9-25) (SARS-CoV-2, Wuhan strain, UniProt P0DTC2)",
  "T1 construct": "source: bought: Acro Biosystems",
  "experiment": "SPR; Biacore 8K+, […]; 10 mM HEPES pH 7.4, 150 mM NaCl, 3 mM EDTA, 0.05% Tween 20; […]",
  "conditions": "both partners purified",
  "data": [
    {"binder": "B1", "values": [
      {"measurement": "fold higher affinity than MB027_D06L", "value": "> 200", "unit": "fold"}
    ]}
  ]
}
